Reference: patent EP2877200B1

Legend:
[1] = molecular target: human Type 1 IGF receptor (human) (UniProt P08069); test: competitive displacement of 125I-Tyr31 IGF-I from IGF-1R (different receptor preparation from Tables 1A-1C)
[2] = molecular target: human Type 1 IGF receptor (human) (UniProt P08069); test: competitive displacement of 125I-Tyr31 IGF-I from IGF-1R

With “[Lys^B28, Pro^B29]-insulin (ligand; other documents disagree on this pair)” as the substance, how does the Kd [1] read?
Its Kd is 3.86 nM.

What about the Kd [2] of the same substance?
Its Kd is 8.39 nM.

With “α-D-mannopyranoside-O^β-Thr^B30-[His^A4, His^A8, Gly^A21]-insulin (ligand)” as the substance, how does the Kd [2] read?
The Kd was 41.8 nM.
